Data published in patent US20190077844A1 (published 2019).

What was measured:
[1] = target: T1, Human glypican-3 on cells (Huh7, Hep3B, H446, HepG2; Hep3B xenograft tissue) (UniProt P51654 25-554); test: flow cytometry; H446 cells
[2] = target: T1, Human glypican-3 on cells (Huh7, Hep3B, …); test: flow cytometry; Hep3B cells

T1 sequence (P51654 25-554): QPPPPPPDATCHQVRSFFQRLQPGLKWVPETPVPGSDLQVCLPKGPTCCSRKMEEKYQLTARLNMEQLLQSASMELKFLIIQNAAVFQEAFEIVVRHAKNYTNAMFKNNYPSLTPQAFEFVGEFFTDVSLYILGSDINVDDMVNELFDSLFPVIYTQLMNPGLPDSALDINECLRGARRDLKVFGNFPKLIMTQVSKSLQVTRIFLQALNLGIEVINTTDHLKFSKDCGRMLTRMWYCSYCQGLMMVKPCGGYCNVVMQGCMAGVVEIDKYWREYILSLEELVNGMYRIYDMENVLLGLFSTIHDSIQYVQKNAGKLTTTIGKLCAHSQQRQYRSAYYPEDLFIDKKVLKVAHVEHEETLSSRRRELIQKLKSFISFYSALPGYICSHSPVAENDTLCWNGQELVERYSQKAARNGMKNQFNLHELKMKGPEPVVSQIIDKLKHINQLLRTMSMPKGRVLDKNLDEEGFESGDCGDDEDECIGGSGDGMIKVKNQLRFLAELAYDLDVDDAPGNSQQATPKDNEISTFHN

Binder	EC50 [1] [pM]	EC50 [2] [pM]
ADX_6912_G02 tubulysin analog drug conjugate DAR2 (designed binder, tubulysin analog-linker (formula IV) on each of the two cysteines of the C-terminal PCPPPPPC) MGVSDVPRDLEVVAATPTSLLISWSDDYHAHRYYRITYGETGGNSPVQEFTVPGEHVTATISGLKPGVDYTITVYAVTYDGEKAATDWSISINYRTPCPPPPPCHHHHHH	573	537
ADX_6077_F02 tubulysin analog drug conjugate DAR1 (designed binder, tubulysin analog-linker (formula IV) on the cysteine of the C-terminal PC via maleimide) MGVSDVPRDLEVVAATPTSLLISWSDDYHAHRYYRITYGETGGNSPVQEFTVPGEHVTATISGLKPGVDYTITVYAVTYDGEKAATDWSISINYRTPCHHHHHH	386	664
